Experimental findings from PMC2824762, “Analysis of the role of PCNA-DNA contacts during clamp loading” (BMC Structural Biology, 2010) are described below.

Data set [1] deals with the molecule itself. The experiment in a line: crystal structure; single-chain PCNA (three subunits joined on one chain) with a 10-base pair DNA; hanging drop, 100 mM Na acetate pH 4.6, 100 mM NaCl, 14% PEG 4K, 20°C; space group P2(1)2(1)2(1); 3.0 Å.
Data set [2] addresses T1, RFC (Replication Factor C clamp loader);PCNA wild-type (Saccharomyces cerevisiae;Saccharomyces …, UniProt P38630;P40348;P38629;P40339;P38251;P15873 1-861;1-353;2-340;1-323;1-354;1-258, |). Nature of the data set: fluorescence anisotropy; RFC titrated; 1 uM PCNA, 1 mM ATPgS, 10 mM MgCl2; Anisotropy: 30 mM Tris pH 7.5, 200 mM NaCl, 2 mM DTT, 1 mM ATPgS, 10 mM MgCl2, 100 nM TAMRA-DNA, 1 uM PCNA, 25 C. Crystals: 100 mM Na acetate pH 4.6, 100 mM NaCl, 14% PEG 4K, 20 C. The following applies: protein: recombinant;recombinant; tags: ;N-terminal 6-His, PreScission-cleaved; copies: 1;1;1;1;1;3; label: TAMRA at 5' end of template strand; 5' overhang 10 nt on template (3' recessed primer), 30 bp duplex.

For data set [3], the target named is T2, RFC (Replication Factor C clamp loader);PCNA K20A/K77A/R80A/R149A (Saccharomyces cerevisiae;Saccharomyces …, UniProt P38630;P40348;P38629;P40339;P38251;P15873 1-861;1-353;2-340;1-323;1-354;1-258, |K20A;K77A;R80A;R149A). The experiment in a line: fluorescence anisotropy; RFC titrated; 1 uM mutant PCNA, 1 mM ATPgS, 10 mM MgCl2; Anisotropy: 30 mM Tris pH 7.5, 200 mM NaCl, 2 mM DTT, 1 mM ATPgS, 10 mM MgCl2, 100 nM TAMRA-DNA, 1 uM PCNA, 25 C. Crystals: 100 mM Na acetate pH 4.6, 100 mM NaCl, 14% PEG 4K, 20 C. The following applies: protein: recombinant;recombinant; tags: ;N-terminal 6-His, PreScission-cleaved; copies: 1;1;1;1;1;3; label: TAMRA at 5' end of template strand; 5' overhang 10 nt on template (3' recessed primer), 30 bp duplex.

The target of data set [4] is single-chain PCNA (three fused PCNA subunits) (Saccharomyces cerevisiae, UniProt P15873;P15873;P15873 1-257;2-257;2-258, R110S;Y114S). Nature of the data set: X-ray crystallography; 3.0 A; DNA tilted ~40 deg, partly disordered, refined as rigid body; pH 4.6; Anisotropy: 30 mM Tris pH 7.5, 200 mM NaCl, 2 mM DTT, 1 mM ATPgS, 10 mM MgCl2, 100 nM TAMRA-DNA, 1 uM PCNA, 25 C. Crystals: 100 mM Na acetate pH 4.6, 100 mM NaCl, 14% PEG 4K, 20 C. The note with it: protein: recombinant; tags: N-terminal 6-His, PreScission-cleavable; copies: 1;1;1; label: Cy5 at 5' end of primer strand; 5' overhang 4 nt on template, 10 bp duplex.

For data set [5], the target named is T1, RFC (Replication Factor C clamp …). Nature of the data set: fluorescence anisotropy; RFC titrated; 1 uM PCNA, 1 mM ATPgS, 10 mM MgCl2; Kd only in figure; Anisotropy: 30 mM Tris pH 7.5, 200 mM NaCl, 2 mM DTT, 1 mM ATPgS, 10 mM MgCl2, 100 nM TAMRA-DNA, 1 uM PCNA, 25 C. Crystals: 100 mM Na acetate pH 4.6, 100 mM NaCl, 14% PEG 4K, 20 C. The note with it: protein: recombinant;recombinant; tags: ;N-terminal 6-His, PreScission-cleaved; copies: 1;1;1;1;1;3; label: TAMRA at 5' end of template strand; 5' overhang 10 nt on template (3' recessed primer), 13 bp duplex. On the technique in general: Polarisation of emitted light reports the rotation of a fluorescent probe.

For data set [6], the target named is T2, RFC (Replication Factor C clamp …). Nature of the data set: fluorescence anisotropy; RFC titrated; 1 uM mutant PCNA, 1 mM ATPgS, 10 mM MgCl2; affinity changes little vs wild-type PCNA; Kd only in figure; Anisotropy: 30 mM Tris pH 7.5, 200 mM NaCl, 2 mM DTT, 1 mM ATPgS, 10 mM MgCl2, 100 nM TAMRA-DNA, 1 uM PCNA, 25 C. Crystals: 100 mM Na acetate pH 4.6, 100 mM NaCl, 14% PEG 4K, 20 C. The note with it: protein: recombinant;recombinant; tags: ;N-terminal 6-His, PreScission-cleaved; copies: 1;1;1;1;1;3; label: TAMRA at 5' end of template strand; 5' overhang 10 nt on template (3' recessed primer), 13 bp duplex.

single-chain PCNA (three fused PCNA subunits), sequence (P15873 2-257 R110S/Y114S, one chain of several): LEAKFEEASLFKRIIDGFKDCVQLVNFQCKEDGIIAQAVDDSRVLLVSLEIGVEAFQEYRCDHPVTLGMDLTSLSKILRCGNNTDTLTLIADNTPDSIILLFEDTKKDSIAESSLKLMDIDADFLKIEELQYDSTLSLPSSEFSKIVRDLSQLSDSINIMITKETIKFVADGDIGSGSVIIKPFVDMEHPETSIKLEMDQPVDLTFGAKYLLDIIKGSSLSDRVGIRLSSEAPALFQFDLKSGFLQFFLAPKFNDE

B1: S. cerevisiae Proliferating Cell Nuclear Antigen (PCNA), wild type (natural protein)
chain: MLEAKFEEASLFKRIIDGFKDCVQLVNFQCKEDGIIAQAVDDSRVLLVSLEIGVEAFQEYRCDHPVTLGMDLTSLSKILRCGNNTDTLTLIADNTPDSIILLFEDTKKDRIAEYSLKLMDIDADFLKIEELQYDSTLSLPSSEFSKIVRDLSQLSDSINIMITKETIKFVADGDIGSGSVIIKPFVDMEHPETSIKLEMDQPVDLTFGAKYLLDIIKGSSLSDRVGIRLSSEAPALFQFDLKSGFLQFFLAPKFNDEE
notes: PCNA, S. cerevisiae; The subunit-with-subunit row from the single-chain PCNA structure is also written on this molecule; also called wild-type PCNA; yeast PCNA; source: E. coli BL21(DE3), purified (HisTrap FF, PreScission protease, HiTrap Q HP); not shown: His6, N-terminal, cleaved
In the case of B1, the “stoichiometry N” value in data set [1] was found to be 3.

B2: DNA-30 (dsDNA)
DNA 1: GAGCATTCAAGGACTTAGGTCTGTATTTATCTACCCACAA
DNA 2: TTGTGGGTAGATAAATACAGACCTAAGTCC
In the case of B2, in data set [2], the dissociation constant Kd was ~100 nM. In addition, the binding signal in data set [3] was ~5 fold weaker Kd than with wild-type PCNA (nearly 5).

B3: crystallization primer-template DNA (dsDNA)
DNA 1: TTTTATACGATGGG
DNA 2: CCCATCGTAT
In the case of B3, in data set [4], the binding result is “binds”.

B4: DNA-13 (dsDNA)
DNA 1: GAGCATTCAAGGACTTAGGTCTG
DNA 2: CAGACCTAAGTCC
Regarding B4, the binding result in data set [5] and in data set [6] was “binds” each time.

As a reminder, the stoichiometry N is the number of molecules, sites or subunits per partner or assembly. Broadly, the Kd is the constant that tells how readily two partners part at equilibrium.
